Target: T1, KDR (VEGFR-2) expressed on the cell surface (human, UniProt P35968 20-1356)
T1 construct: whole, on cells; also called endogenous human KDR; KDR of HUVEC cells
Experiment: FACS on HUVEC cells pretreated with 20 ng/ml VEGF, against IMC-1C11 IgG

T1 sequence (P35968 20-1356): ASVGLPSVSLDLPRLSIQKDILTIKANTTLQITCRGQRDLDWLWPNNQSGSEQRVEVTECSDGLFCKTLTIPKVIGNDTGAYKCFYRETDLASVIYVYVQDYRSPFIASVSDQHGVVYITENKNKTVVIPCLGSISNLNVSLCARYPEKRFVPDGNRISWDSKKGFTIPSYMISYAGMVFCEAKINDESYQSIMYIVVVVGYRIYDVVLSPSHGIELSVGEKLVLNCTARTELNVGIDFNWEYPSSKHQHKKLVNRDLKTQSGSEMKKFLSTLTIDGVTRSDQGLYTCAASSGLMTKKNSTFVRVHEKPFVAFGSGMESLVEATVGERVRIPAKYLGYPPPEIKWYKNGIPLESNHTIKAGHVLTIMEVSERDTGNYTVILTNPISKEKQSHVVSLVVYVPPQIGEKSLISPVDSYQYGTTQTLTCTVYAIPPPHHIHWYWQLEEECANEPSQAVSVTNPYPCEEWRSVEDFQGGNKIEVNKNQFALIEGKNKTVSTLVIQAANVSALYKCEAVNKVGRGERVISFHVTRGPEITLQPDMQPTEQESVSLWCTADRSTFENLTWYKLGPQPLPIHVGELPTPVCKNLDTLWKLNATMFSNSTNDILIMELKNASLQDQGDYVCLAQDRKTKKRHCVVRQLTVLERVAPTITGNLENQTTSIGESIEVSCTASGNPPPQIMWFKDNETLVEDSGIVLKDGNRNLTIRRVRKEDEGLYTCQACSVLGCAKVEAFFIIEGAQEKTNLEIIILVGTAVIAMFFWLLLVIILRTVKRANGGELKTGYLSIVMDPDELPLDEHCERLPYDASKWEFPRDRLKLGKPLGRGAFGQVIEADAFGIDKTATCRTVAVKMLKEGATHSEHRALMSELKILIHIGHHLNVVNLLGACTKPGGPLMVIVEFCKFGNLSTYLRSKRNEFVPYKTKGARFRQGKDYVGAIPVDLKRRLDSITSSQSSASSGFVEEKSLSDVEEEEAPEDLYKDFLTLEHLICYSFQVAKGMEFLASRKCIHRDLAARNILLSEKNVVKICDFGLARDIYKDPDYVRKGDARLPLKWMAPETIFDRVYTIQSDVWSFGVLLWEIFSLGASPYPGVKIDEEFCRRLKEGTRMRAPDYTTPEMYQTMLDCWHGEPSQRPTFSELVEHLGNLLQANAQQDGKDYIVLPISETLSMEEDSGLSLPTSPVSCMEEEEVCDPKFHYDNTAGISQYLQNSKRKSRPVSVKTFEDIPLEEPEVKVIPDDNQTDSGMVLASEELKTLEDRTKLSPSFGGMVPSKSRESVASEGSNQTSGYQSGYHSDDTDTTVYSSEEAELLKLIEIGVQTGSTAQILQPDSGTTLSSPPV

B1: 6A6 IgG (antibody, V domains shown)
VH: QMQLVQSGAEVKKPGASVKLSCKASGYTFSSYWMHWVRQAPGQRLEWMGEINPGNGHTNYNEKFKSRVTITVDKSASTAYMELSSLRSEDTAVYYCAKIWGPSLTSPFDYWGQGTLVTVSS
VL: SNFMLTQPPSVSVSPGKTARITCRGDNLGDVNVHWYQQRPGQAPVLVMYYDADRPSGIPERFSGSNSGNTATLTISGVEAGDEADYYCQVWDRTSEYVFGTGTKVTVLG
notes: Whole human IgG expressed in CHO DG44 cells; also called 6A6 antibody; anti-KDR 6A6 IgG
fold higher KDR neutralizing ability than IMC-1C11 IgG: ~2 fold

— patent US20110065176A1 (PHARMABCINE, published 2011)
